{"source": "paper PMC4423232", "key": {"[1]": {"target": "optimized version of the ectodomain of human Fcγ receptor I (hFcγRI, CD64), residues Gln16 to Val289, hexa-histidine tag at the C-terminus (human) (UniProt P12314)", "assay": "SPR; temperature dependence of KD, van't Hoff approximation; hFcγRI on the surface, Fc or IgG1 as analyte"}, "[2]": {"target": "optimized version of the ectodomain of human Fcγ receptor I (hFcγRI, CD64), residues Gln16 to Val289, hexa-histidine tag at the C-terminus (human) (UniProt P12314)", "assay": "SPR; method #1: Biacore T200, hFcγRI captured by its C-terminal hexa-histidine on a Ni-NTA chip (~550 RU for Fc, ~220 RU for IgG), Fc or IgG1 as analyte, PBS with 0.005% Tween-20, 25 °C, 1:1 Langmuir global fit, KD from the rate constants"}}}
{"substance": "Fc fragment of the humanized IgG1 monoclonal antibody rituximab (from UniProt P01857 107-328) (domain or fragment)", "values": [{"measurement": "dH (van't Hoff)", "setting": "[1]", "result": -26.8, "unit": "kcal/mol"}, {"measurement": "Kd", "setting": "[2]", "result": 4.2, "unit": "nM"}, {"measurement": "koff", "setting": "[2]", "result": 0.00011, "unit": "s⁻¹"}, {"measurement": "kon", "setting": "[2]", "result": 27000, "unit": "M⁻¹ s⁻¹"}]}
